According to patent US20200079844A1 (Ablynx, published 2020):
Like-named read-outs stand apart in the source and are kept apart here.

Legend:
Protein A = Protein A (UniProt P38507 37-477)
mouse serum albumin [1] = target: T1, mouse serum albumin (mouse, UniProt P07724 25-608)
T1 construct: On the Biacore chip; also called mouse albumin

human serum albumin = target: T2, human serum albumin (human, UniProt P02768 25-609)
T2 construct: On the Biacore chip; also called human albumin

mouse serum albumin [2] = target: T1, mouse serum albumin; remark: listed apart in the source
rhesus serum albumin = target: T3, rhesus serum albumin (rhesus, UniProt Q28522 17-600)
T3 construct: On the Biacore chip; also called rhesus albumin
T3 sequence (Q28522 17-600 limits assumed): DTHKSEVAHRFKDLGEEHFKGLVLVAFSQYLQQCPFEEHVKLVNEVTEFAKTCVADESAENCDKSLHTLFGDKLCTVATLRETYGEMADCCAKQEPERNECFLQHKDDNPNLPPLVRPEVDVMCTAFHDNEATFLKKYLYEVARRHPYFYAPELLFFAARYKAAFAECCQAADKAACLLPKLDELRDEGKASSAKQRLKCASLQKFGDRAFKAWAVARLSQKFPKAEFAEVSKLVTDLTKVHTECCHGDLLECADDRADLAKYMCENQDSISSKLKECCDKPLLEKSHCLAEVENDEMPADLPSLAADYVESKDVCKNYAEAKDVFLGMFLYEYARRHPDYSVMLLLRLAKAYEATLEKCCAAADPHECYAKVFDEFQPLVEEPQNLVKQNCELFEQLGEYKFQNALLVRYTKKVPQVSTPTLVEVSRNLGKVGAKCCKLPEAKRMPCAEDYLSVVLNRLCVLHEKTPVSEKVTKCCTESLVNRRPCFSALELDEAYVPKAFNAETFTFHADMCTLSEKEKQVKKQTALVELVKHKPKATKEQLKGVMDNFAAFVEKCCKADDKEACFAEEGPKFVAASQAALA

human TNFα [3] = target: T4, human TNFα (human, UniProt P01375 77-233)
T4 construct: Biotinylated in the ELISAs, amine-coupled to CM5 in Biacore; also called human TNF-alpha; hTNF-alpha
T4 sequence (P01375 77-233 limits assumed): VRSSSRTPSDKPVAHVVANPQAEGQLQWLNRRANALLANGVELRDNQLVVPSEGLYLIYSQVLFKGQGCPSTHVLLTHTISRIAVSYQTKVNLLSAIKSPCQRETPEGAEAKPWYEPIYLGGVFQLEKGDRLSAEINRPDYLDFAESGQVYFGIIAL

human TNFα [4] = target: T4, human TNFα; test: cell-based or functional assay
rhesus TNFα = rhesus TNFα (rhesus, UniProt P48094 77-233); test: cell-based or functional assay
Sequence of rhesus TNFα (P48094 77-233 limits assumed): as the sequence (P01375 77-233 limits assumed) above, with R44T, T72N, R138L counted along it

human TNFα [5] = target: T4, human TNFα; test: competition ELISA, biotinylated TNFα (10 ng/ml) pre-incubated with nanobody, binding to coated Enbrel; 50% inhibition
human TNFα [6] = target: T4, human TNFα; remark: listed apart in the source
human TNFα [7] = target: T4, human TNFα; test: cell-based or functional assay; remark: listed apart in the source
human TNFα [8] = target: T4, human TNFα; test: ELISA, biotinylated TNFα on neutravidin, anti-myc detection; 50% binding
human TNFα [9] = target: T4, human TNFα; test: cell-based or functional assay; remark: listed apart in the source
human TNFα [10] = target: T4, human TNFα; remark: listed apart in the source
human TNFα [11] = target: T4, human TNFα; remark: listed apart in the source
human TNFα [12] = target: T4, human TNFα; test: cell-based or functional assay; remark: listed apart in the source

T1 sequence (P07724 25-608 limits assumed): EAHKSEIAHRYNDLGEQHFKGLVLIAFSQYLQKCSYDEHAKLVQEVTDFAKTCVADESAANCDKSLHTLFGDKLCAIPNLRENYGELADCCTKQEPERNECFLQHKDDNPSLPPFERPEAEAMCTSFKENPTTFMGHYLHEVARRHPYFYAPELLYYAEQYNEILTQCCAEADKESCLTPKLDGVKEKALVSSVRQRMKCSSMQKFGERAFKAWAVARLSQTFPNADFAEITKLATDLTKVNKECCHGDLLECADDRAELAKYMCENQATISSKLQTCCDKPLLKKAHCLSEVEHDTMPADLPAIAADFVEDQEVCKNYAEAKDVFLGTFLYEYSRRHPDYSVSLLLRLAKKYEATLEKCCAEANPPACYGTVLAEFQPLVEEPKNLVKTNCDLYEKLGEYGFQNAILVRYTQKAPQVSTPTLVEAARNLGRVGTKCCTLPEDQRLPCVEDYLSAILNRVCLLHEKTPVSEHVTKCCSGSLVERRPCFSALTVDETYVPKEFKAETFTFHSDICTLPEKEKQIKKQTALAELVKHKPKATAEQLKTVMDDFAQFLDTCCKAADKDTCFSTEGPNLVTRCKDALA

B1: PMP6A8 (ALB2) (VHH)
VHH: AVQLVESGGGLVQGGGSLRLACAASERIFDLNLMGWYRQGPGNERELVATCITVGDSTNYADSVKGRFTISMDYTKQTVYLHMNSLRPEDTGLYYCKIRRTWHSELWGQGTQVTVSS
notes: Class C serum albumin nanobody; not shown: C-terminal c-myc tag and (His)6 tag coded by vector pAX051
Protein A
  binding result: no binding (tested: 10 uM)
Mouse serum albumin [1]
  difference in affinity for human/rhesus versus mouse serum albumin: 400 fold
Human serum albumin
  Kd: 0.092 nM
  koff: 7.52e-05 s⁻¹
  kon: 815000 M⁻¹ s⁻¹
Mouse serum albumin [2]
  Kd: 15.7 nM
  koff: 0.00307 s⁻¹
  kon: 195000 M⁻¹ s⁻¹
Rhesus serum albumin
  Kd: 0.036 nM
  koff: 7.12e-05 s⁻¹
  kon: 1.94e+06 M⁻¹ s⁻¹

B2: PMP1G5 (TNF2) (VHH)
VHH: QVQLVESGGGLVQAGGSLRLSCAASGRTFSEPSGYTYTIGWFRQAPGKEREFVARIYWSSGLTYYADSVKGRFTISRDIAKNTVDLLMNSLKPEDTAVYYCAARDGIPTSRSVGSYNYWGQGTQVTVSS
notes: also called WT TNF2; not shown: C-terminal c-myc tag and (His)6 tag coded by vector pAX051
Human TNFα [3]
  koff: 0.00133 s⁻¹
Human TNFα [4]
  EC50 in nM (mean); L929s + Act D cytotoxicity assay, human TNFα @ 0.5 ng/ml: 1.41 nM
Rhesus TNFα
  EC50 in nM (mean); L929s + Act D cytotoxicity assay, rhesus TNFα @ 0.5 ng/ml: > 50 nM
Human TNFα [5]
  IC50: 3.5 µg/mL
Human TNFα [6]
  koff: 0.00085 s⁻¹
Human TNFα [7]
  EC50 in nM (mean); L929s + Act D cytotoxicity assay, human TNFa @ 0.5 ng/ml: 1.41 nM
Human TNFα [8]
  EC50: 0.02 µg/mL
Human TNFα [9]
  EC50 in nM (mean); L929s + Act D cytotoxicity assay, human TNFa @ 0.5 ng/ml: 1.41 nM
Human TNFα [10]
  koff: 0.000359 s⁻¹
Human TNFα [11]
  koff: 0.00083 s⁻¹
Human TNFα [12]
  EC50 in nM; alphaKYM cell assay (10000 c/w), human TNFa @ 1 ng/ml: 4.24 nM
